Laboratory results as given in publication PMC4989220.
Blank lines part the entries; values can stand above or below the substance they belong to.

How the values were obtained:
[1] = molecular target: Rab6a GTPase (rat hepatocytes) (rat (endogenous in primary hepatocytes)) (UniProt Q9WVB1); experiment: proximity ligation; Duolink in situ PLA in control VA-13 cells and hepatocytes from control rats; mouse anti-giantin + rabbit anti-Rab6a, or mouse anti-Rab6a + rabbit anti-NMIIA-P-S1943; cells with more than one red spot counted
Chain of Rab6a GTPase (rat hepatocytes) (rat (endogenous in primary hepatocytes)) (Q9WVB1 whole entry): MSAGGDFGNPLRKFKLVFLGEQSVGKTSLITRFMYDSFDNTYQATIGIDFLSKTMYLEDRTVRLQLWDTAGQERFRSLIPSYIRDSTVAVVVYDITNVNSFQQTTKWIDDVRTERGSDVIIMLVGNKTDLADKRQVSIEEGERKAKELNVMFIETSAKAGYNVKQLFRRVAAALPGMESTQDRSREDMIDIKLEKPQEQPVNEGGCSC

[2] = molecular target: Rab6a GTPase (human (endogenous in VA-13, HepG2-derived)) (UniProt P20340); experiment: as above
Chain of Rab6a GTPase (human (endogenous in VA-13, HepG2-derived)) (P20340 whole entry): as the sequence (Q9WVB1 whole entry) above, with A3T, N202S counted along it

[3] = molecular target: Rab6a GTPase (rat hepatocytes) (rat (endogenous in primary hepatocytes)) (UniProt Q9WVB1); experiment: proximity ligation; Duolink in situ PLA in VA-13 cells treated with 35 mM EtOH for 72 h and hepatocytes from EtOH-fed rats; mouse anti-Rab6a + rabbit anti-NMIIA-P-S1943; cells with more than one red spot counted

Chain of non-muscle Myosin IIA heavy chain phosphorylated at S1943 (rat hepatocytes) (Q62812 2-1961): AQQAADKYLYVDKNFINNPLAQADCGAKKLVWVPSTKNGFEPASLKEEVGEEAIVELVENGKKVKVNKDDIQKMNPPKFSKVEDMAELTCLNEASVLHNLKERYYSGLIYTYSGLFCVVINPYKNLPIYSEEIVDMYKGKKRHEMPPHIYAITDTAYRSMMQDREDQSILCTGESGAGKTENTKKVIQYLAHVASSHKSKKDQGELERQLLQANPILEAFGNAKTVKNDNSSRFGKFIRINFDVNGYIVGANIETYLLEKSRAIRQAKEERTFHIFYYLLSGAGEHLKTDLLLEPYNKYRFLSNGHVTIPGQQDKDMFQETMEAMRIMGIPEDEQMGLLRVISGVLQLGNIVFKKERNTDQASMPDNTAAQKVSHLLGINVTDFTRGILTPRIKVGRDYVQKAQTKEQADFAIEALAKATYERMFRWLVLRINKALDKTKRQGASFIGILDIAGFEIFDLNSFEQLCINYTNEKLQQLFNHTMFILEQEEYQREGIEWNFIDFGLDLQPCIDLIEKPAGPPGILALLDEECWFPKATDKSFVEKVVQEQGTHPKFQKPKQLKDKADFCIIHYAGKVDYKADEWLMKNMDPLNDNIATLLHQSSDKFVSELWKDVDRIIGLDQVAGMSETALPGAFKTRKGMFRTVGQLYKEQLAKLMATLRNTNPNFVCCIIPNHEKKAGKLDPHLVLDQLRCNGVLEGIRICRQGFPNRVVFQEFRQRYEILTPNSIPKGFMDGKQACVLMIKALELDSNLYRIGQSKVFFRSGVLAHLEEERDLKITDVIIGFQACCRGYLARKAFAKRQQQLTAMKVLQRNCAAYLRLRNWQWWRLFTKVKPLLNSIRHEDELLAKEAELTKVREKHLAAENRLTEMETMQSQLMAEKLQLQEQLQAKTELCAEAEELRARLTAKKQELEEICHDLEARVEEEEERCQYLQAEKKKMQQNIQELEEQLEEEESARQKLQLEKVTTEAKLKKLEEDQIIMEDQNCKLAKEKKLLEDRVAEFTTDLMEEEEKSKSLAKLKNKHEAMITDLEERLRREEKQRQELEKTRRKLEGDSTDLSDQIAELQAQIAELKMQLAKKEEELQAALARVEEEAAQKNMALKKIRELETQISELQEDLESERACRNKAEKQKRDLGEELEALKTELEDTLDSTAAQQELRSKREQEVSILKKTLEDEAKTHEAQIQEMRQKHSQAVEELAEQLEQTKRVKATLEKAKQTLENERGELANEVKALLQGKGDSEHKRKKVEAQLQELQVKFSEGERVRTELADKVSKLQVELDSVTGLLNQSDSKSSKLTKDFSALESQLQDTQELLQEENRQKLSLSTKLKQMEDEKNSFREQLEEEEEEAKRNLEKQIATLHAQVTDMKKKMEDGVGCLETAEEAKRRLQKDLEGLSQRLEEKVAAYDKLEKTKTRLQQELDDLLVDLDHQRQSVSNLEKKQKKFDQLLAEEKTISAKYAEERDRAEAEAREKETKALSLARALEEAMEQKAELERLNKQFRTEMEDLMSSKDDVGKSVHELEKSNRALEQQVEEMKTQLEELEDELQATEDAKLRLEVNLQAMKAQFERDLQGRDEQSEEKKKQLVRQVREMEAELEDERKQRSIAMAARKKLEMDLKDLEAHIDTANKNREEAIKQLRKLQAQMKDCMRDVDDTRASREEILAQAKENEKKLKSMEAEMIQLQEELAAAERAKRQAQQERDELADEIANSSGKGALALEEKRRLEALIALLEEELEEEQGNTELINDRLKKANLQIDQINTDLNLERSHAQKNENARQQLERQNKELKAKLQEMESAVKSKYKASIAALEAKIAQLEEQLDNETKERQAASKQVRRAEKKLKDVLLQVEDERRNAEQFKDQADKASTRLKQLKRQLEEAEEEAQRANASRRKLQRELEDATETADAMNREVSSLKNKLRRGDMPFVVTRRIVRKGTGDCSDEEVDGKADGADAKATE

- percent of cells with more than one PLA spot [1]: 83%
Substance: giantin (rat hepatocytes) (natural protein)

- percent of cells with more than one PLA spot [2]: 78%
Substance: giantin, Q14789 1-3259

Substance: non-muscle Myosin IIA heavy chain phosphorylated at S1943 (rat hepatocytes) (from UniProt Q62812 1-1961) (natural protein)
- percent of cells with PLA-positive puncta [3]: 86%
